Measured values reported in patent US20240376208A1 (AFFIMED, published 2024).
Like-named read-outs stand apart in the source and are kept apart here.

How the values were obtained:
Test in all cases: cell-based or functional assay
[1] = molecular target: CD16A on primary human NK cells (human, UniProt P08637 17-254)
[2] = molecular target: T1, EGFR on tumor target cells (MCF-7, Daudi, DK-MG, HCT-116) (UniProt P00533 25-1210, limits assumed)
[3] = molecular target: T1, EGFR on tumor target cells (MCF-7, …); remark: listed apart in the source
[4] = molecular target: T1, EGFR on tumor target cells (MCF-7, …); remark: listed apart in the source

Sequence of CD16A on primary human NK cells (P08637 17-254 limits assumed): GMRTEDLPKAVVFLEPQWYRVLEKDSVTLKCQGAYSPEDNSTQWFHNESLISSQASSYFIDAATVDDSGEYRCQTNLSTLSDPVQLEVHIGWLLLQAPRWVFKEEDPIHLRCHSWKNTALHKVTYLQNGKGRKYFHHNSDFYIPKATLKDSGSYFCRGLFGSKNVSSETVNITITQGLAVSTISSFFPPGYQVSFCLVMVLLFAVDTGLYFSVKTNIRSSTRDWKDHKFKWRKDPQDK

B1: scFv-IgAb_43 (bispecific antibody)
heavy: QVQLQESGPGLVKPSETLSLTCTVSGGSVSSGSYYWSWIRQPPGKGLEWIGYIYYSGSTNYNPSLKSRVTISVDTSKNQFSLKLSSVTAADTAVYYCARNPISIPAFDIWGQGTMVTVSSASTKGPSVFPLAPSSKSTSGGTAALGCLVKDYFPEPVTVSWNSGALTSGVHTFPAVLQSSGLYSLSSVVTVPSSSLGTQTYICNVNHKPSNTKVDKKVEPKSCDKTHTCPPCPAPEFEGGPSVFLFPPKPKDTLMISRTPEVTCVVVAVSHEDPEVKFNWYVDGVEVHNAKTKPREEQYNSTYRVVSVLTVLHQDWLNGKEYKCKVSNKALPAPIEKTISKAKGQPREPQVYTLPPSREEMTKNQVSLTCLVKGFYPSDIAVEWESNGQPENNYKTTPPVLDSDGSFFLYSKLTVDKSRWQQGNVFSCSVMHEALHNHYTQKSLSLSPGGGGGSGGGGSGGGGSGGGGSGGGGSGGGGSSYVLTQPSSVSVAPGQTATISCGGHNIGSKNVHWYQQRPGQSPVLVIYQDNKRPSGIPERFSGSNSGNTATLTISGTQAMDEADYYCQVWDNYSVLFGGGTKLTVLGGSGGSGGSGGSGGSGGSGGSQVQLVQSGAEVKKPGESLKVSCKASGYTFTSYYMHWVRQAPGQGLEWMGAIEPMYGSTSYAQKFQGRVTMTRDTSTSTVYMELSSLRSEDTAVYYCARGSAYYYDFADYWGQGTLVTVSS
light: QPVLTQPPSVSVAPGKTARITCGGNNIGSKSVHWYQQKPGQAPVLVIYYDSDRPSGIPERFSGSNSGNTATLTISRVEAGDEADYYCQVWDTSSDHVLFGGGTKLTVLGQPKAAPSVTLFPPSSEELQANKATLVCLISDFYPGAVTVAWKADSSPVKAGVETTTPSKQSNNKYAASSYLSLTPEQWKSHRSYSCQVTHEGSTVEKTVAPTECS
EC50 [pM], 4 h calcein-release NK cell fratricide assay, E:T 1:1 [1]: 3510 pM
Emax [%], 4 h calcein-release NK cell fratricide assay, E:T 1:1 [1]: 6.9%
EC50 [pM], 4 h calcein-release cytotoxicity on MCF-7 target cells, NK cells E:T 5:1 [2]: 9.2 pM
Emax [%], 4 h calcein-release cytotoxicity on MCF-7 target cells, NK cells E:T 5:1 [2]: 16.2%
Emax [%], 4 h calcein-release cytotoxicity on Daudi target cells, NK cells E:T 5:1 [3]: 9.3%
EC50 [pM], 4 h calcein-release cytotoxicity on Daudi target cells, NK cells E:T 5:1 [4]: 151 pM
Emax [%], 4 h calcein-release cytotoxicity on Daudi target cells, NK cells E:T 5:1 [4]: 10%
